Here are results for one protein from PMC2330189 (Acta Crystallographica Section F: Structural Biology and …, 2007).

The series concerns the molecule itself. Description: SEC. For orientation: Size exclusion chromatography separates by hydrodynamic size, large species first.

B1: 1,3-propanediol dehydrogenase from Klebsiella pneumoniae (enzyme, UniProt Q59477 1-387, looked up)
chain: MSYRMFDYLVPNVNFFGPNAISVVGERCQLLGGKKALLVTDKGLRAIKDGAVDKTLHYLREAGIEVAIFDGVEPNPKDTNVRDGLAVFRREQCDIIVTVGGGSPHDCGKGIGIAATHEGDLYQYAGIETLTNPLPPIVAVNTTAGTASEVTRHCVLTNTETKVKFVIVSWRNLPSVSINDPLLMIGKPAALTAATGMDALTHAVEAYISKDANPVTDAAAMQAIRLIARNLRQAVALGSNLQARENMAYASLLAGMAFNNANLGYVHAMAHQLGGLYDMPHGVANAVLLPHVARYNLIANPEKFADIAELMGENITGLSTLDAAEKAIAAITRLSMDIGIPQHLRDLGVKEADFPYMAEMALKDGNAFSNPRKGNEQEIAAIFRQAF
A word on the stoichiometry N: it is the number of molecules, sites or subunits per partner or assembly. B1: the “stoichiometry N” value amounted to 10.
